Numbering of substitutions follows the chain as printed. Blank lines part the entries; values can stand above or below the binder they belong to.
How the values were obtained:
[1] = biological target: T1, human serum albumin (Sigma-Aldrich A3782) (human, UniProt P02768 25-609); assay: SPR (ProteOn XPR36), SA immobilised, pH 7.4
T1 construct: Bought protein; also called HSA; human SA

[2] = biological target: T2, cynomolgus monkey serum albumin (generated in-house) (cynomolgus monkey, UniProt A2V9Z4 25-608, limits assumed); assay: SPR (ProteOn XPR36), SA immobilised, pH 7.4
T2 construct: also called cyno SA

[3] = biological target: T3, rat serum albumin (Sigma-Aldrich A4538) (rat, UniProt P02770 25-608); assay: SPR (ProteOn XPR36), SA immobilised, pH 7.4
T3 construct: Bought protein; also called rat SA

[4] = biological target: T4, mouse serum albumin (Albumin Bioscience 2601) (mouse, UniProt P07724 25-608); assay: SPR (ProteOn XPR36), SA immobilised, pH 7.4
T4 construct: Bought protein; also called mouse SA

[5] = biological target: T5, guinea pig serum albumin (Gentaur GPSA62) (guinea pig); assay: SPR (ProteOn XPR36), SA immobilised, pH 7.4
T5 construct: also called guinea pig SA

[6] = biological target: T6, dog serum albumin (Abcam 119814) (dog, UniProt P49822 25-608); assay: SPR (ProteOn XPR36), SA immobilised, pH 7.4
T6 construct: Bought protein; also called dog SA

[7] = biological target: T7, pig serum albumin (Sigma-Aldrich A4414) (pig, UniProt P08835 25-607); assay: SPR (ProteOn XPR36), SA immobilised, pH 7.4
T7 construct: Bought protein; also called pig SA

[8] = biological target: T1, human serum albumin (Sigma-Aldrich …); assay: SPR (ProteOn), HSA immobilised, 500 nM injected, dissociation at pH 5.0
[9] = biological target: T1, human serum albumin (Sigma-Aldrich …); assay: SPR (ProteOn), HSA immobilised, 500 nM injected, dissociation at pH 6.0
[10] = biological target: T1, human serum albumin (Sigma-Aldrich …); assay: SPR (ProteOn), HSA immobilised, 500 nM injected, dissociation at pH 7.4
[11] = biological target: T1, human serum albumin (Sigma-Aldrich …); assay: competition ELISA on coated HSA

Kd [1]: 46 pM
koff [1]: 3.7e-05 s⁻¹
kon [1]: 790000 M⁻¹ s⁻¹
Kd [2]: 16 pM
koff [2]: 1.4e-05 s⁻¹
kon [2]: 830000 M⁻¹ s⁻¹
Kd [3]: 12 pM
koff [3]: 1.5e-05 s⁻¹
kon [3]: 1.2e+06 M⁻¹ s⁻¹
Kd [4]: 16 pM
koff [4]: 1.5e-05 s⁻¹
kon [4]: 940000 M⁻¹ s⁻¹
Kd [5]: 59 pM
koff [5]: 5.6e-05 s⁻¹
kon [5]: 940000 M⁻¹ s⁻¹
Kd [6]: 2800 pM
koff [6]: 0.0025 s⁻¹
kon [6]: 900000 M⁻¹ s⁻¹
Kd [7]: 290000 pM
koff [7]: 0.036 s⁻¹
kon [7]: 120000 M⁻¹ s⁻¹
koff [8]: 7.5e-05 s⁻¹
koff [9]: 6.7e-05 s⁻¹
koff [10]: 6e-05 s⁻¹
B1: serum albumin binder of SEQ ID NO:19 (invention) (VHH)
VHH: EVQLVESGGGVVQPGGSLRLSCAASGSTISSYVMGWFRRAPGKEREFVAAISRSGGYTYYADSVKGRFTISRDNSKKTAYLQMNSLRPEDTALYYCAAGRYSAWYSQSYEYDYWGQGTLVTVSS
notes: Monovalent Nanobody; also called T023500043

binding result [11]: binds
B2: His6Flag3-SEQ ID NO:20 (VHH, not shown: small tags and cut ends)
VHH: B1 VHH with T28N
